From paper PMC11288887 (2024) come the findings set out here.

Targets include (DLP)6 binder; (DLS)6 binder; (KLP)6 binder.
Holding throughout (assay): FP

No end group written: not given here.

B1: (KLP)6 (peptide)
peptide: tetramethylrhodamine-KLPKLPKLPKLPKLPKLP
With B1, the results for the Kd with (DLP)6 binder and with (DLS)6 binder were ~1000 nM and ~1800 nM, respectively.

B2: (DLP)6 (peptide)
peptide: tetramethylrhodamine-DLPDLPDLPDLPDLPDLP
In the case of B2, the Kd was determined as 4.6 nM with (KLP)6 binder and 0.7 nM with (DLS)6 binder.

For orientation: Kd means the concentration at which binding is half-saturated. A high value points to lower affinity.
